We go through three molecules from US20140087995A1 (published 2014).

Numbered stars: 1 amine (or outer) side, 2 acyl side, 3 side chain; on linkers, the order of the positions; unused ones are H or OH. Bridge positions count the residues as written; N and C are the ends. Side chains are listed from the residue outwards. Ends that are not written are not given here. * marks the point of attachment. C20 diacid = O=C(O)CCCCCCCCCCCCCCCCCCC(=O)*; γGlu = O=C(O)[C@H](CCC(=O)[*:2])N[*:1]; AEEA = NCCOCCOCC(=O)O

B1: N^ε1-[2-[2-[2-[[(4S)-4-carboxy-4-(19-carboxynonadecanoylamino)butanoyl]amino]ethoxy]ethoxy]acetyl]-[Arg14,Arg17,Pro21,Pro27,Pro31]-h-amylin (peptide)
peptide: K([AEEA-γGlu-C20 diacid])CNTATCATQRLARFLRHSSPNFGAIPSSTPVGSNTY-NH2
modifications: disulfide 2-7; N-terminus assumed
SMILES: CC[C@H](C)[C@H](NC(=O)[C@H](C)NC(=O)CNC(=O)[C@H](Cc1ccccc1)NC(=O)[C@H](CC(N)=O)NC(=O)[C@@H]1CCCN1C(=O)[C@H](CO)NC(=O)[C@H](CO)NC(=O)[C@H](Cc1c[nH]cn1)NC(=O)[C@H](CCCNC(=N)N)NC(=O)[C@H](CC(C)C)NC(=O)[C@H](Cc1ccccc1)NC(=O)[C@H](CCCNC(=N)N)NC(=O)[C@H](C)NC(=O)[C@H](CC(C)C)NC(=O)[C@H](CCCNC(=N)N)NC(=O)[C@H](CCC(N)=O)NC(=O)[C@@H](NC(=O)[C@H](C)NC(=O)[C@@H]1CSSC[C@H](NC(=O)[C@@H](N)CCCCNC(=O)COCCOCCNC(=O)CC[C@H](NC(=O)CCCCCCCCCCCCCCCCCCC(=O)O)C(=O)O)C(=O)N[C@@H](CC(N)=O)C(=O)N[C@@H]([C@@H](C)O)C(=O)N[C@@H](C)C(=O)N[C@@H]([C@@H](C)O)C(=O)N1)[C@@H](C)O)C(=O)N1CCC[C@H]1C(=O)N[C@@H](CO)C(=O)N[C@@H](CO)C(=O)N[C@H](C(=O)N1CCC[C@H]1C(=O)N[C@H](C(=O)NCC(=O)N[C@@H](CO)C(=O)N[C@@H](CC(N)=O)C(=O)N[C@H](C(=O)N[C@@H](Cc1ccc(O)cc1)C(N)=O)[C@@H](C)O)C(C)C)[C@@H](C)O
notes: Analogue of human amylin; also called compound 64
B2: N^ε1-[2-[2-[2-[[(4S)-4-carboxy-4-(19-carboxynonadecanoylamino)butanoyl]amino]ethoxy]ethoxy]acetyl]-[Arg14,Arg17,Pro21,Pro27]-h-amylin (peptide)
peptide: K([AEEA-γGlu-C20 diacid])CNTATCATQRLARFLRHSSPNFGAIPSSTNVGSNTY-NH2
modifications: disulfide 2-7; N-terminus assumed
SMILES: CC[C@H](C)[C@H](NC(=O)[C@H](C)NC(=O)CNC(=O)[C@H](Cc1ccccc1)NC(=O)[C@H](CC(N)=O)NC(=O)[C@@H]1CCCN1C(=O)[C@H](CO)NC(=O)[C@H](CO)NC(=O)[C@H](Cc1c[nH]cn1)NC(=O)[C@H](CCCNC(=N)N)NC(=O)[C@H](CC(C)C)NC(=O)[C@H](Cc1ccccc1)NC(=O)[C@H](CCCNC(=N)N)NC(=O)[C@H](C)NC(=O)[C@H](CC(C)C)NC(=O)[C@H](CCCNC(=N)N)NC(=O)[C@H](CCC(N)=O)NC(=O)[C@@H](NC(=O)[C@H](C)NC(=O)[C@@H]1CSSC[C@H](NC(=O)[C@@H](N)CCCCNC(=O)COCCOCCNC(=O)CC[C@H](NC(=O)CCCCCCCCCCCCCCCCCCC(=O)O)C(=O)O)C(=O)N[C@@H](CC(N)=O)C(=O)N[C@@H]([C@@H](C)O)C(=O)N[C@@H](C)C(=O)N[C@@H]([C@@H](C)O)C(=O)N1)[C@@H](C)O)C(=O)N1CCC[C@H]1C(=O)N[C@@H](CO)C(=O)N[C@@H](CO)C(=O)N[C@H](C(=O)N[C@@H](CC(N)=O)C(=O)N[C@H](C(=O)NCC(=O)N[C@@H](CO)C(=O)N[C@@H](CC(N)=O)C(=O)N[C@H](C(=O)N[C@@H](Cc1ccc(O)cc1)C(N)=O)[C@@H](C)O)C(C)C)[C@@H](C)O
notes: Analogue of human amylin; also called compound 82
B3: N^ε1-[2-[2-[2-[[(4S)-4-carboxy-4-(19-carboxynonadecanoylamino)butanoyl]amino]ethoxy]ethoxy]acetyl]-[Arg17,Pro21,Pro27,Arg34]-h-amylin (peptide)
peptide: K([AEEA-γGlu-C20 diacid])CNTATCATQRLANFLRHSSPNFGAIPSSTNVGRNTY-NH2
modifications: disulfide 2-7; N-terminus assumed
SMILES: CC[C@H](C)[C@H](NC(=O)[C@H](C)NC(=O)CNC(=O)[C@H](Cc1ccccc1)NC(=O)[C@H](CC(N)=O)NC(=O)[C@@H]1CCCN1C(=O)[C@H](CO)NC(=O)[C@H](CO)NC(=O)[C@H](Cc1c[nH]cn1)NC(=O)[C@H](CCCNC(=N)N)NC(=O)[C@H](CC(C)C)NC(=O)[C@H](Cc1ccccc1)NC(=O)[C@H](CC(N)=O)NC(=O)[C@H](C)NC(=O)[C@H](CC(C)C)NC(=O)[C@H](CCCNC(=N)N)NC(=O)[C@H](CCC(N)=O)NC(=O)[C@@H](NC(=O)[C@H](C)NC(=O)[C@@H]1CSSC[C@H](NC(=O)[C@@H](N)CCCCNC(=O)COCCOCCNC(=O)CC[C@H](NC(=O)CCCCCCCCCCCCCCCCCCC(=O)O)C(=O)O)C(=O)N[C@@H](CC(N)=O)C(=O)N[C@@H]([C@@H](C)O)C(=O)N[C@@H](C)C(=O)N[C@@H]([C@@H](C)O)C(=O)N1)[C@@H](C)O)C(=O)N1CCC[C@H]1C(=O)N[C@@H](CO)C(=O)N[C@@H](CO)C(=O)N[C@H](C(=O)N[C@@H](CC(N)=O)C(=O)N[C@H](C(=O)NCC(=O)N[C@@H](CCCNC(=N)N)C(=O)N[C@@H](CC(N)=O)C(=O)N[C@H](C(=O)N[C@@H](Cc1ccc(O)cc1)C(N)=O)[C@@H](C)O)C(C)C)[C@@H](C)O
notes: Analogue of human amylin; also called compound 78

The first assay concerns the target T1, rat calcitonin receptor (rat, UniProt P32214 25-516).
T1 construct: whole, on cells; Membranes prepared from transiently transfected BHK tk'ts 13 cells (Assay VIII); also called rCTR; rCT
T1 sequence (looked up): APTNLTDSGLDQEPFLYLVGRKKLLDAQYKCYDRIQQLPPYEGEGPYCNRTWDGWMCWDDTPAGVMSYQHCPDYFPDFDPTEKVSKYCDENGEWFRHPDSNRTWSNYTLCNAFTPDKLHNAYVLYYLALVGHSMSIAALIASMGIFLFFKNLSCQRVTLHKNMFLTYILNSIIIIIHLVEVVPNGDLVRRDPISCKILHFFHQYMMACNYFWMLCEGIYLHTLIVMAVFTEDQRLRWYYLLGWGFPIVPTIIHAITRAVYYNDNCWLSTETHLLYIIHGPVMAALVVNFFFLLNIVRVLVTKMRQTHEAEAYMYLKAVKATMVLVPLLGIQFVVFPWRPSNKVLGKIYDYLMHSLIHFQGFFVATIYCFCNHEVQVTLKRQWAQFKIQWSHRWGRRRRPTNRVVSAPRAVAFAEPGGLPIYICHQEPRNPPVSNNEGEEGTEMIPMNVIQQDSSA
In words: ratio of binding IC50s: rat calcitonin receptor / rat amylin receptor (reference).
In the case of B1, the “Ratio rCT/rAmylin binding” value came out at 64.7.

For the molecule B2, the “Ratio rCT/rAmylin binding” value worked out at 87.

B3: the “Ratio rCT/rAmylin binding” value was found to be 69.9.

Another assay has as its target T2, human calcitonin receptor (human, UniProt P30988 25-474).
T2 construct: whole, on cells; Membranes prepared from a stably transfected BHK cell line (Assay VII); also called hCTR; hCT
T2 sequence (looked up): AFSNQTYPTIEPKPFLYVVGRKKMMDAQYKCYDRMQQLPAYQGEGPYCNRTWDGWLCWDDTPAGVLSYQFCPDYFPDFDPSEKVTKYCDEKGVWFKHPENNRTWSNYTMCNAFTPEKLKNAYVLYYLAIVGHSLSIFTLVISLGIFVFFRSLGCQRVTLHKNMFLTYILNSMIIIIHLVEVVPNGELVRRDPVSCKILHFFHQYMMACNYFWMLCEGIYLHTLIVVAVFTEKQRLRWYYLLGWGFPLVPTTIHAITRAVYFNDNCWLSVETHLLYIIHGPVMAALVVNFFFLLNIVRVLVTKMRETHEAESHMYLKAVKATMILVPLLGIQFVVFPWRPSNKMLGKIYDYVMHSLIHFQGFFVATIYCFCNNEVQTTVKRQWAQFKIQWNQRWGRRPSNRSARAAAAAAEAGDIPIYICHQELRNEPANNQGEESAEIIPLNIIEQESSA
The assay can be described thus: ratio of binding IC50s: human calcitonin receptor / human amylin receptor (reference). As for the experimental part:
The resulting pellet was resuspended, homogenized and centrifuged (20.000 rpm, 15 min) in a buffer containing 20 mM Na-HEPES and 0.1 mM EDTA (pH 7.4, buffer 2). The resulting pellet was resuspended in buffer 2 and protein concentration was measured (BCA protein Assay, Pierce). The homogenate was kept cold during the whole procedure. The membranes were kept at −80° C. until use. The assay was performed in a 384 well Optiplate (PerkinElmer) in a total volume of 40 ul. Membranes were mixed with SPA beads. Final concentration of membranes 35 ng/μL final and SPA beads was 0.05 mg/well. Test-compounds were dissolved in DMSO and further diluted in assay buffer (50 mM Hepes, pH 7.4, 1 mM CaCl2, 5 mM MgCl₂, 0.1% OA and 0.02% Tween20). […] The final mixture was incubated with shaking at 400 rpm for 120 min at 25° C. prior to centrifugation (1500 rpm, 10 min). Samples were analyzed on TopCounter™ (Packard). The IC₅₀ was calculated using (one site binding competition analysis) GraphPad Prism5 as a measure of receptor affinity.
Membranes were prepared in the following way; the cells were rinsed with PBS and incubated with Versene for approximately 5 min before harvesting. The cells were flushed with PBS and the cell-suspension was centrifuged for 5 min at 1000 rpm. Cells were homogenized (Ultrathurrax) in a buffer containing 20 mM Na-HEPES and 10 mM EDTA (pH 7.4) and centrifuged at 20.000 rpm for 15 min. The resulting pellet was resuspended, homogenized and centrifuged (20.000 rpm, 15 min) in a buffer containing 20 mM Na-HEPES and 0.1 mM EDTA (pH 7.4, buffer 2). The resulting pellet was resuspended in buffer 2 and protein concentration was measured (BCA protein Assay, Pierce). The homogenate was kept cold during the whole procedure. The membranes were kept at −80° C. until use. Assay was performed in a 384 well Optiplate (PerkinElmer) in a total volume of 40 ul. Membranes were mixed with SPA beads.
Turning to B1, the “Ratio hCT/hAmylin binding” value came out at 126.

Turning to B2, the “Ratio hCT/hAmylin binding” value was 140.

For the molecule B3, the “Ratio hCT/hAmylin binding” value came to 60.7.

The next assay addresses T1, rat calcitonin receptor. The assay can be described thus: SPA competition vs 125I-calcitonin, membranes of BHK cells with rat calcitonin receptor (Assay VIII).
A word on the IC50: it is the midpoint of a concentration-inhibition curve. Consider B1, for which the IC50 was 128 nM.

On to B2, for which the IC50 was 143 nM.

In the case of B3, the IC50 was determined as 90.6 nM.

For a further assay, the target named is T3, rat amylin receptor (rat calcitonin receptor + rat RAMP 3) (rat, UniProt P32214 25-516; Q9JJ73 23-147).
T3 construct: whole, on cells; Membranes prepared from transiently transfected BHK tk'ts 13 cells (Assay VI); also called rAmylin-R; rAmylin
T3 sequence (looked up) 1: T1 sequence (looked up)
T3 sequence (looked up) 2: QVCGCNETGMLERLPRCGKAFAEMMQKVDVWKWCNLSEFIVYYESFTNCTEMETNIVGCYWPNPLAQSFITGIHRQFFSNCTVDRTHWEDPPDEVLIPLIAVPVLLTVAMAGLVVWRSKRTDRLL
In words: SPA competition vs 125I-rat amylin, membranes of BHK cells with rat calcitonin receptor + rat RAMP3 (Assay VI). As for the experimental part:
The binding assay was performed using scintillation proximity assay (SPA) beads (RPNQ0001) from PerkinElmer and cell membranes from the Amylin 3(a)/CRE-luc cells (as described in Assay (II)) were used. Membranes were prepared in the following way; the cells were rinsed with PBS and incubated with Versene for approximately 5 min before harvesting. The cells were flushed with PBS and the cell-suspension was centrifuged for 5 min at 1000 rpm. Cells were homogenized (ultrathurrax) in a buffer containing 20 mM Na-HEPES and 10 mM EDTA (pH 7.4) and centrifuged at 20.000 rpm for 15 min. The resulting pellet was resuspended, homogenized and centrifuged (20.000 rpm, 15 min) in a buffer containing 20 mM Na-HEPES and 0.1 mM EDTA (pH 7.4, buffer 2). The resulting pellet was resuspended in buffer 2 and protein concentration was measured (BCA protein Assay, Pierce). The homogenate was kept cold during the whole procedure. The membranes were kept at −80° C. until use. The assay was performed in a 384 well Optiplate (PerkinElmer) in a total volume of 40 ul. Membranes were mixed with SPA beads. Final concentration of membranes 35 ng/μL final and SPA beads was 0.05 mg/well. Test-compounds were dissolved in DMSO and further diluted in assay buffer (50 mM Hepes, pH 7.4, 1 mM CaCl2, 5 mM MgCl₂, 0.1% OA and 0.02% Tween20). […] The final mixture was incubated with shaking at 400 rpm for 120 min at 25° C. prior to centrifugation (1500 rpm, 10 min). Samples were analyzed on TopCounter™ (Packard). The IC₅₀ was calculated using (one site binding competition analysis) GraphPad Prism5 as a measure of receptor affinity.
Cells were grown in DMEM with 10% FBS and 1% Pen/Strep. Approximately 48 hours after transfection, the cells were harvested and membranes were prepared.
As for B1, the IC50 worked out at 1.97 nM.

With B2, the IC50 came to 1.64 nM.

For B3, the half-inhibitory concentration (IC50) worked out at 1.3 nM.
